Laboratory results published in US5326551A, “Nuclear imaging uses of radio-labelled atrial natriuretic factor” (L'Istitut de Recherches Cliniques de Montreal, priority 1991, dated 1994).

Legend:
[1] = adult males of approximately 75 kg, bolus injection; cited from earlier work
[2] = Gamma camera imaging of radio-labelled ANF uptake in green vervet monkey; type: in vivo
Method: ANF 99-126, rat form: 5 μg) was labelled by the inventors with ^125 I (1 mCi, obtained from commercial sources) using the lactoperoxidase method. The labelled compound was purified on HPLC (C-18 μBondapak™ column) by known methods. 250 μCi of the ^125 I ANF was administered to a 7 kg male monkey of green vervet species, as an intravenous bolus, under pentobarbital anesthesia. Prior to the experiment, the monkey was kept in a single cage with free access to food and water. The animal was subjected to data acquisition for 60 minutes using, as the scintillation detector, a gamma camera attached to a computer. Images and computer data were acquired at 10 second intervals.
A 7 kg anesthetized monkey which had been previously dehydrated for 18 hours was injected with an intravenous bolus injection of 80 μCi of ^131 I-ANF. […] Serial images (0-5, 5-10, 10-20 min.) and time activity curves were done and analyzed of the following regions of interest: the lungs, the kidneys, the upper and lower abdomen. […]
Serial images (0-7, 7-13, 13-20, 20-26, 26-30 min.) and time-activity curves were obtained and analyzed of the regions of interest over the lungs, kidneys, upper and lower abdomen. […]
The maximum and minimum levels of radioactivity over the 3 hour test period are given in each case.

[3] = Gamma camera study of radio-labelled ANF in rabbits; type: in vivo, rabbit
Method: A gamma camera study was carried out using ^131 I-ANF in domestic rabbits. The animals were sedated using Nembutal and the ANF was injected via the marginal ear vein. Camera images were taken at 100,000 count intervals up to 2.5 hours post injection.
A subsequent study with ^123 I-ANF in New Zealand White rabbits was also carried out. The animals were sedated with Nembutal and ANF was injected via the marginal ear vein. Camera images were taken at 100,000 intervals up to 1.25 hours post injection.

| Molecule | bolus dose giving a medically effective hypotensive effect [1] | uptake of radio-label ([2]; 7 kg monkey dehydrated for 18 hours, 80 μCi intravenous bolus) | uptake of radio-label compared with dehydrated animal ([2]; 7 kg monkey hydrated with 120 cc saline, 65 μCi intravenous) | most prominent organ ([3]; lung also visible) | time of rapid accumulation in the kidney ([3]; post-injection, marginal ear vein, Nembutal sedation) |
| --- | --- | --- | --- | --- | --- |
| CC[C@H](C)[C@@H]1NC(=O)[C@H](CCCNC(=N)N)NC(=O)[C@H](CC(=O)O)NC(=O)[C@H](CCSC)NC(=O)[C@H](CCCNC(=N)N)NC(=O)CNC(=O)CNC(=O)[C@H](Cc2ccccc2)NC(=O)[C@@H](NC(=O)[C@H](CO)NC(=O)[C@H](CO)NC(=O)[C@H](CCCNC(=N)N)NC(=O)[C@H](CCCNC(=N)N)NC(=O)[C@H](CC(C)C)NC(=O)[C@@H](N)CO)CSSC[C@@H](C(=O)N[C@@H](CC(N)=O)C(=O)N[C@@H](CO)C(=O)N[C@@H](Cc2ccccc2)C(=O)N[C@@H](CCCNC(=N)N)C(=O)N[C@@H](Cc2ccc(O)cc2)C(=O)O)NC(=O)CNC(=O)[C@H](CC(C)C)NC(=O)CNC(=O)[C@H](CO)NC(=O)[C@H](CCC(N)=O)NC(=O)[C@H](C)NC(=O)CNC1=O [ANF, atrial natriuretic factor] | greater than 50 μg | – | – | – | – |
| ^131 I-ANF: human ANF (99-126) with methionine in position 110 labelled with ^131 I; in Example 7 rat or human ANF | – | rapid uptake of radio-label particularly by the kidneys and lungs | lesser uptake of radio-label in both kidney and lung | kidney was the most prominent organ | 3 min |
